{"source": "patent US20020155577A1", "about": "(AVENTIS PHARMA S A, published 2002)", "binders": {"B1": {"name": "central region of parkin (amino acids 135-290) fused to the LexA bacterial repressor, from vector pLex9-parkin (135-290) (other)", "chain": "GSPAGRSIYNSFYVYCKGPCQRVQPGKLRVQCSTCRQATLTLTQGPSCWDDVLIPNRMSGECQSPHCPGTSAEFFFKCGAHPTSDKETSVALHLIATNSRNITCITCTDVRSPVLVFQCNSRHVICLDCFHLYCVTRLNDRQFVHDPQLGYSLPCV", "notes": "also called central portion of parkin; not shown: LexA bacterial repressor as encoded by vector pLex9 (pBTM116)"}}, "biological_target": "T1, PAP1 (Parkin Associated Protein 1) fragment encoded by the insert of library plasmid pGAD-Ly111b, fused to … (human, UniProt Q4VX76 267-610)", "T1 construct": "Prey of the yeast two-hybrid test; It is a partial PAP1 clone from a human peripheral lymphocyte cDNA library; Any linker between GAL4 and the insert is not described; also called fragment of PAP1; plasmid isolated during the screening of the two-hybrid library", "T1 sequence": "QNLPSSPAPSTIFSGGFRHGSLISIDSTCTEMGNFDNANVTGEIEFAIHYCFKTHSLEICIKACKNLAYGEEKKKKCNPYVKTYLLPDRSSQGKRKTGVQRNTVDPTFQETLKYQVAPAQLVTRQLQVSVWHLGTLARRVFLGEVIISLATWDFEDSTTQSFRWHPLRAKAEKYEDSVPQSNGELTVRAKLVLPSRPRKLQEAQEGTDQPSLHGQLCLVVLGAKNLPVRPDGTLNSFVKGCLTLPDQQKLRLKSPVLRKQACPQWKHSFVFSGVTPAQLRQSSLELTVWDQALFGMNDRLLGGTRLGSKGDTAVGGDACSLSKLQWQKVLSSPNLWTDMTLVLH", "test": "yeast two-hybrid in strain L40, beta-Gal activity assay", "method": "A sheet of nitrocellulose is preplaced on the Petri dish containing the yeast clones, which are separated from each other. This sheet is then immersed in liquid nitrogen for 30 seconds, in order to rupture the yeasts and thus to release the β-galactosidase activity. After thawing, the sheet of nitrocellulose is placed, colonies facing upwards, in another Petri dish containing a Whatman paper which has been presoaked in 1.5 ml of PBS solution (60 mM Na₂HPO₄, 40 mM NaH₂PO₄, 10 mM KCl, 1 mM MgSO₄, pH 7) containing 15 μl of X-Gal (5-bromo-4-chloro-3-indoyl-β-D-galactoside) at 40 mg/ml of N,N-dimethylformamide. The dish is then placed in an incubator at 37° C. The assay is termed positive when the colonies on the membrane turn blue after 12 hours.\nTo determine the specificity of interaction between the fragment corresponding to the PAP1 protein and the central region of parkin, a two-hybrid test for specific interaction with other nonrelevant proteins was carried out. To carry out this test, we transformed strain L40 with the control plasmids plex9-cAPP or pLex9-HaRasVal12, in place of the plasmid pLex9-parkin (135-290), which respectively encode the cytoplasmic domain of the APP or the HaRasVal12 protein, which are fused to the LexA DNA binding domain, and with the plasmid isolated during the screening of the two-hybrid library. […]", "data": [{"binder": "B1", "values": [{"measurement": "binding result", "value": "binds"}]}]}
